From patent US6617497B1, “Cytokinin oxidase” (The Curators of the University of Missouri, priority 1997, dated 2003)

Biological target: T1, cytokinin oxidase activity (Zea mays, UniProt Q9T0N8)
T1 construct: The exon fusion (containing ckx1 and including its putative signal peptide) was ligated into the Pml1/BsmB1 restriction sites of pPICZ-A; made in house; host or cells: Pichia pastoris X33 (transformant PPckx1, plasmid pROM24); activity measured in the culture supernatant
Assay: Cytokinin oxidase activity of ckx1 expressed in Pichia pastoris
Type: biochemical
From the text: Two assays were used to screen purification steps for cytokinin oxidase activity. The first was the Schiff base formation assay measuring the production of dimethylallylaldehyde from iP, as described by Liberos-Minotta (1995), which was used up through the DEAE column step. A second assay, developed by the applicant, was used in the remaining purification steps. In this assay, the transfer of reducing equivalents from isopentenyladenine to dichlorophenolindophenol (DCPIP), catalyzed by ckx1, allows the observance of reactivity by measuring absorbance change at 590 nm. In a final volume of 250 μl, the assay contains: 100 mM Phosphate buffer, pH 7.0; 1.0 mM EDTA; 0.05 mM DCPIP; 0.1 mM iP; 100 μg/ml BSA; and the sample tested. After the addition of the enzyme, absorbance change is read at 590 nm for 10 minutes.
Removal of the right-most intron was accomplished by splicing by overlap extension (Horton et al., 1989) and for the left-most intron by ligation of suitable restriction fragments. The resulting intronless cassette was inserted into the Pichia expression vector pPICZ-A to give the expression construct pROM24 (FIG. 9). This construct was introduced into the requisite Pichia host and grown in the presence of methanol to induce ckx1 expression. Appropriate control Pichia lines (containing. the vector alone or a recombinant expressing human serum albumin) were grown in parallel. […]

T1 sequence (Q9T0N8 19-534): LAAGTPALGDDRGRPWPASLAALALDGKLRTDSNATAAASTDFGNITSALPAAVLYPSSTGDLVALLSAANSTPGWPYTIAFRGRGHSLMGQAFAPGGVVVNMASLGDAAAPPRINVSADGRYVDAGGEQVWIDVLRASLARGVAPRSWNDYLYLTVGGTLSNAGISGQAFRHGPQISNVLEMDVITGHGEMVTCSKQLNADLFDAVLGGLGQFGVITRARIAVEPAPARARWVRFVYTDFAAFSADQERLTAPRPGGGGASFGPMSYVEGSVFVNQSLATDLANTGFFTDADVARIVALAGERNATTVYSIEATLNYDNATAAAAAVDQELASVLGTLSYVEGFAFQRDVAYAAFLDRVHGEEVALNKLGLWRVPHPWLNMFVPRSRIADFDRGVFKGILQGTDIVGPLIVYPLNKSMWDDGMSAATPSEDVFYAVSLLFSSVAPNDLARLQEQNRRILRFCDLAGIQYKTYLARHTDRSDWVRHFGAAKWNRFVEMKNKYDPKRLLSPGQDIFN

- cytokinin oxidase activity in cell lysates (Pichia cell lysates, at any time during the growth curve): No cytokinin oxidase activity
B1: ckx1: purified plant cytokinin oxidizing enzyme from Zea mays (SEQ. ID NO. 1); here expressed recombinantly in Pichia pastoris (protein)
chain: MAVVYYLLLAGLIACSHALAAGTPALGDDRGRPWPASLAALALDGKLRTDSNATAAASTDFGNITSALPAAVLYPSSTGDLVALLSAANSTPGWPYTIAFRGRGHSLMGQAFAPGGVVVNMASLGDAAAPPGINVSADGRYVDAGGEQVWIDVLRASLARGVAPRSWNDYLYLTVGGTLSNAGISGQAFRHGPQISNVLEMDVITGHGEMVTCSKQLNADLFDAVLGGLGQFGVITRARIAVEPAPARARWVRFVYTDFAAFSADQERLTAPRPGGGGASFGPMSYVEGSVFVNQSLATDLANTGFFTDADVARIVALAGERNATTVYSIEATLNYDNATAAAAAVDQELASVLGTLSYVEGFAFQRDVAYAAFLDRVHGEEVALNKLGLWRVPHPWLNMFVPRSRIADFDRGVFKGILQGTDIVGPLIVYPLNKSMWDDGMSAATPSEDVFYAVSLLFSSVAPNDLARLQEQNRRILRFCDLAGIQYKTYLARHTDRSDWVRHFGAAKWNRFVEMKNKYDPKRLLSPGQDIFN
modifications: Zea mays
notes: here expressed recombinantly in Pichia pastoris
- cytokinin oxidase activity in growth medium (Pichia culture supernatant, methanol induction): high levels of cytokinin oxidase activity
